Measured values: patent US20160109449A1 (JULIUS MAXIMILIANS UNIVERSITAET WUERZBURG, published 2016)

What was measured:
[1] = molecular target: T1, IsaA oligopeptide SEQ ID NO: 18 (Staphylococcus aureus); assay: peptide array on glass slide, fluorescent secondary antibody;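 also: binding of a hybridoma-secreted monoclonal antibody to immobilized oligopeptide spots, compared with control antibodies, detected through a fluorescence-labeled secondary antibody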
T1 construct: Synthetic 15-mer of IsaA, spotted on a glass slide
T1 peptide: AHLVDLAHNHQDQLN
Experimental: (§1) Each oligopeptide was immobilized on a small spot on a glass side. Binding of the monoclonal antibodies secreted by the hybridoma cell line DSM ACC2987 and of control antibodies to these spots was examined upon incubation with these antibodies by binding of fluorescence labeled secondary antibodies and detecting fluorescence intensities.

[2] = molecular target: T2, IsaA oligopeptide SEQ ID NO: 41 (Staphylococcus aureus); assay: as above
T2 construct: Synthetic 15-mer of IsaA, spotted on a glass slide
T2 peptide: VSAPTYHNYSTSTTS
Experimental: as §1

[3] = molecular target: T3, IsaA oligopeptide SEQ ID NO: 50 (Staphylococcus aureus); assay: as above
T3 construct: Synthetic 15-mer of IsaA, spotted on a glass slide
T3 peptide: MAQRTGVSASTWAAI
Experimental: as §1

[4] = molecular target: T4, IsaA oligopeptide SEQ ID NO: 26 (Staphylococcus aureus); assay: as above
T4 construct: Synthetic 15-mer of IsaA, spotted on a glass slide
T4 peptide: FQYNFTSNGTTWSWS
Experimental: as §1

[5] = molecular target: T5, IsaA oligopeptide SEQ ID NO: 51 (Staphylococcus aureus); assay: as above
T5 construct: Synthetic 15-mer of IsaA, spotted on a glass slide
T5 peptide: TGVSASTWAAIIARE
Experimental: as §1

[6] = molecular target: T6, IsaA oligopeptide SEQ ID NO: 58 (Staphylococcus aureus); assay: as above
T6 construct: Synthetic 15-mer of IsaA, spotted on a glass slide
T6 peptide: SGLFQTMPGWGPTNT
Experimental: as §1

[7] = molecular target: T7, IsaA oligopeptide SEQ ID NO: 17 (Staphylococcus aureus); assay: as above
T7 construct: Synthetic 15-mer of IsaA, spotted on a glass slide
T7 peptide: NVDQAHLVDLAHNHQ
Experimental: as §1

[8] = molecular target: T8, IsaA oligopeptide SEQ ID NO: 38 (Staphylococcus aureus); assay: as above
T8 construct: Synthetic 15-mer of IsaA, spotted on a glass slide
T8 peptide: YNAQSSNSNVEAVSA
Experimental: as §1

[9] = molecular target: T9, IsaA oligopeptide SEQ ID NO: 25 (Staphylococcus aureus); assay: as above
T9 construct: Synthetic 15-mer of IsaA, spotted on a glass slide
T9 peptide: VKDGFQYNFTSNGTT
Experimental: as §1

[10] = molecular target: T10, IsaA oligopeptide SEQ ID NO: 9 (Staphylococcus aureus); assay: as above
T10 construct: Synthetic 15-mer of IsaA, spotted on a glass slide
T10 peptide: MKKTIMASSLAVALG
Experimental: as §1

[11] = molecular target: T11, IsaA oligopeptide SEQ ID NO: 61 (Staphylococcus aureus); assay: as above
T11 construct: Synthetic 15-mer of IsaA, spotted on a glass slide
T11 peptide: TNTVDQQINAAVKAY
Experimental: as §1

[12] = molecular target: T12, IsaA oligopeptide SEQ ID NO: 56 (Staphylococcus aureus); assay: as above
T12 construct: Synthetic 15-mer of IsaA, spotted on a glass slide
T12 peptide: NAYNPSGASGLFQTM
Experimental: as §1

[13] = molecular target: T13, IsaA oligopeptide SEQ ID NO: 20 (Staphylococcus aureus); assay: as above
T13 construct: Synthetic 15-mer of IsaA, spotted on a glass slide
T13 peptide: NHQDQLNAAPIKDGA
Experimental: as §1

[14] = molecular target: T14, IsaA oligopeptide SEQ ID NO: 23 (Staphylococcus aureus); assay: as above
T14 construct: Synthetic 15-mer of IsaA, spotted on a glass slide
T14 peptide: DGAYDIHFVKDGFQY
Experimental: as §1

[15] = molecular target: T15, IsaA oligopeptide SEQ ID NO: 21 (Staphylococcus aureus); assay: as above
T15 construct: Synthetic 15-mer of IsaA, spotted on a glass slide
T15 peptide: QLNAAPIKDGAYDIH
Experimental: as §1

[16] = molecular target: T16, IsaA oligopeptide SEQ ID NO: 22 (Staphylococcus aureus); assay: as above
T16 construct: Synthetic 15-mer of IsaA, spotted on a glass slide
T16 peptide: APIKDGAYDIHFVKD
Experimental: as §1

[17] = molecular target: T17, IsaA oligopeptide SEQ ID NO: 47 (Staphylococcus aureus); assay: as above
T17 construct: Synthetic 15-mer of IsaA, spotted on a glass slide
T17 peptide: TAGATGSSAAQIMAQ
Experimental: as §1

[18] = molecular target: T18, IsaA oligopeptide SEQ ID NO: 33 (Staphylococcus aureus); assay: as above
T18 construct: Synthetic 15-mer of IsaA, spotted on a glass slide
T18 peptide: VAGADYTTSYNQGSD
Experimental: as §1

[19] = molecular target: T19, IsaA oligopeptide SEQ ID NO: 55 (Staphylococcus aureus); assay: as above
T19 construct: Synthetic 15-mer of IsaA, spotted on a glass slide
T19 peptide: NGQVNAYNPSGASGL
Experimental: as §1

[20] = molecular target: T20, IsaA oligopeptide SEQ ID NO: 44 (Staphylococcus aureus); assay: as above
T20 construct: Synthetic 15-mer of IsaA, spotted on a glass slide
T20 peptide: TTSSSVRLSNGNTAG
Experimental: as §1

[21] = molecular target: T21, IsaA oligopeptide SEQ ID NO: 63 (Staphylococcus aureus); assay: as above
T21 construct: Synthetic 15-mer of IsaA, spotted on a glass slide
T21 peptide: NAAVKAYKAQGLGAW
Experimental: as §1

[22] = molecular target: T22, IsaA oligopeptide SEQ ID NO: 10 (Staphylococcus aureus); assay: as above
T22 construct: Synthetic 15-mer of IsaA, spotted on a glass slide
T22 peptide: IMASSLAVALGVTGY
Experimental: as §1

[23] = molecular target: T23, IsaA oligopeptide SEQ ID NO: 62 (Staphylococcus aureus); assay: as above
T23 construct: Synthetic 15-mer of IsaA, spotted on a glass slide
T23 peptide: DQQINAAVKAYKAQG
Experimental: as §1

[24] = molecular target: T24, IsaA oligopeptide SEQ ID NO: 59 (Staphylococcus aureus); assay: as above
T24 construct: Synthetic 15-mer of IsaA, spotted on a glass slide
T24 peptide: QTMPGWGPTNTVDQQ
Experimental: as §1

[25] = molecular target: T25, IsaA oligopeptide SEQ ID NO: 39 (Staphylococcus aureus); assay: as above
T25 construct: Synthetic 15-mer of IsaA, spotted on a glass slide
T25 peptide: SSNSNVEAVSAPTYH
Experimental: as §1

[26] = molecular target: T26, IsaA oligopeptide SEQ ID NO: 64 (Staphylococcus aureus); assay: as above
T26 construct: Synthetic 15-mer of IsaA, spotted on a glass slide
T26 peptide: AVKAYKAQGLGAWGF
Experimental: as §1

[27] = molecular target: T27, IsaA oligopeptide SEQ ID NO: 53 (Staphylococcus aureus); assay: as above
T27 construct: Synthetic 15-mer of IsaA, spotted on a glass slide
T27 peptide: AAIIARESNGQVNAY
Experimental: as §1

[28] = molecular target: T28, recombinant IsaA protein of Staphylococcus aureus (29 kDa immunodominant antigen IsaA) (Staphylococcus aureus, UniProt Q2FV52 30-233, limits assumed); assay: SPR (BIACORE 2000), biotinylated IsaA on streptavidin chip, antibody as analyte; off rate set to 10^-5 sec^-1; off rate set to 10^-5 sec^-1
T28 construct: Coated as rIsaA in the ELISA; In the first SPR experiment it was N-biotinylated with sulfo-NHS-LC-biotin (mostly at a single site) and immobilised on streptavidin; In the second SPR experiment it was the analyte in solution; also called rIsaA; 29 kDa IsaA antigen
T28 sequence (looked up): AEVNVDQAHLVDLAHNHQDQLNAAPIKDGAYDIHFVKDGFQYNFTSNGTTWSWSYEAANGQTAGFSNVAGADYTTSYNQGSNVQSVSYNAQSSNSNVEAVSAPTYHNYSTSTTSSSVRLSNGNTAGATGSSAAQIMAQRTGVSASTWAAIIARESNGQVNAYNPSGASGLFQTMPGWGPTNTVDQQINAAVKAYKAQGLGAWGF
Experimental: The amount of the immobilized antigen corresponds to about 100 resonance units [RU] measured by means of the BIACORE®2000 system.
Interaction analyses were performed using HBS150 buffer (10 mM HEPES pH7.4, 150 mM NaCl, 3.4 mM EDTA). Sensorgrams were recorded at a flow rate of 10 μl/min at 25° C. The association and dissociation time was set to 10 min. The chips were regenerated after each cycle with different regeneration solutions (A: 1 mM CH₃COOH, 1 M NaCl, pH 3; B: 4 M MgCl₂; C: 1 mM CH₃COOH, 1 M NaCl, 6 M Urea, pH 3) for 2 min.
Since the evaluation of the kinetic rate constant is limited to 10⁻⁵ sec⁻¹ the observed off-rate has to be smaller than that value.

B1: monoclonal antibody MAB-UK-66 secreted by hybridoma cell line DSM ACC2987 (antibody, V domains shown)
VH: DVKLVESGGGLVKLGGSLKLSCSASGFTFSNYYMSWVRQTPEKRLELVADINGNGGSTYYPDTVKGRFTISRDNAKNTLYLQMSSLKSEDTALYYCVRRGGYYALDYWGQGTTVTVSS
VL: DVVMTQTPLSLPVSLGDQASISCRSSQSLVHINGNTYLHWYLQKPGQSPKLLIYRVSNRFSGVPDRFSGSGSGTDFTLKISRVEAEDLGVYFCSQSTHVPWTFGGGTKLELKR
notes: Monoclonal mouse antibody from a hybridoma; Detected with anti-mouse IgG; also called antibodies secreted by cell line DSM ACC2987; anti-IsaA MAB
B1 was tested, and the “Binding (fluorescence intensity)” value [1] was 25300, the “Binding (fluorescence intensity)” value [2] was 421 and the “Binding (fluorescence intensity)” value [3] was 192. For the same binder, the “Binding (fluorescence intensity)” value [4] was 51800, the “Binding (fluorescence intensity)” value [5] was 139 and the “Binding (fluorescence intensity)” value [6] was 1320. For the same binder, the “Binding (fluorescence intensity)” value [7] was 17700, the “Binding (fluorescence intensity)” value [8] was 975 and the “Binding (fluorescence intensity)” value [9] was 49300. For the same binder, the “Binding (fluorescence intensity)” value [10] was 273, the “Binding (fluorescence intensity)” value [11] was 479 and the “Binding (fluorescence intensity)” value [12] was 959. The “Binding (fluorescence intensity)” value [13] was 1050, the “Binding (fluorescence intensity)” value [14] was 63900 and the “Binding (fluorescence intensity)” value [15] was 33300. The “Binding (fluorescence intensity)” value [16] was 21500, the “Binding (fluorescence intensity)” value [17] was 252 and the “Binding (fluorescence intensity)” value [18] was 55500. The “Binding (fluorescence intensity)” value [19] was 1030, the “Binding (fluorescence intensity)” value [20] was 486 and the “Binding (fluorescence intensity)” value [21] was 645. For the same binder, the “Binding (fluorescence intensity)” value [22] was 228, the “Binding (fluorescence intensity)” value [23] was 551 and the “Binding (fluorescence intensity)” value [24] was 1400. The “Binding (fluorescence intensity)” value [25] was 491, the “Binding (fluorescence intensity)” value [26] was 379 and the “Binding (fluorescence intensity)” value [27] was 577. The Kd [28] was no more than 0.018 nM and the kon [28] was 560000 M⁻¹ s⁻¹.
